Test results from article PMC2258145, “Transcriptional Regulation of PIK3CA Oncogene by NF-κB in Ovarian Cancer Microenvironment”.

Molecular target: NF-kB p50 (recombinant, Promega) (UniProt P19838 1-433)
Assay: EMSA; LightShift EMSA kit binding buffer, 1 ug poly(dI-dC), 30 fmol biotin probe, 20 ul, room temperature 20 min; 7.5% PAGE in 0.25x TBE; salt and pH not stated
Conditions: protein: commercial; chain copies: 2; label: 5'-biotin; blunt

NF-kB p50 (recombinant, Promega), sequence (P19838 1-433): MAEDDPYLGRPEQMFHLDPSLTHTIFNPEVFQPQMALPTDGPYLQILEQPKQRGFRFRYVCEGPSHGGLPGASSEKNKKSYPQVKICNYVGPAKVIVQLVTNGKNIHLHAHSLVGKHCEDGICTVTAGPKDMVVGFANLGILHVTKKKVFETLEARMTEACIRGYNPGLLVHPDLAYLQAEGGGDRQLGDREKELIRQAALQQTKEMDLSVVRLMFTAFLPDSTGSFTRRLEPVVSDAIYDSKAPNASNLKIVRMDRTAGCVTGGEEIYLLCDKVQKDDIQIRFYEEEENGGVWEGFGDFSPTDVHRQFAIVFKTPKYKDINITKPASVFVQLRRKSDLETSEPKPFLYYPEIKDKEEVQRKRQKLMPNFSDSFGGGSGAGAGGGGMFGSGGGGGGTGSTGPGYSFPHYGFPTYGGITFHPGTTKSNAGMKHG

B1: wt huPIK3CA NF-kB probe (dsDNA)
DNA 1: GACGTGGGGGATTTTTCGCGTA
DNA 2: TACGCGAAAAATCCCCCACGTC
Does B1 bind?
Result: binds
